Assay results from article PMC2953525, “Subtle Alterations in PCNA-Partner Interactions Severely Impair DNA Replication and Repair” (PLoS Biology, 2010).
Changes are numbered by the printed parent chain.

B1: pol30-Msh6E6: PCNA mutant evolved for Msh6, IDCL sequence DYDKDLLKIIEL (protein)
chain: MLEAKFEEASLFKRIIDGFKDCVQLVNFQCKEDGIIAQAVDDSRVLLVSLEIGVEAFQEYRCDHPVTLGMDLTSLSKILRCGNNTDTLTLIADNTPDSIILLFEDTKKDRIAEYSLKLMDYDKDLLKIIELQYDSTLSLPSSEFSKIVRDLSQLSDSINIMITKETIKFVADGDIGSGSVIIKPFVDMEHPETSIKLEMDQPVDLTFGAKYLLDIIKGSSLSDRVGIRLSSEAPALFQFDLKSGFLQFFLAPKFNDEE
modifications: left off: Gal4 activation domain, end not stated, kept
B2: pol30-Msh6E2: PCNA mutant evolved for Msh6, IDCL sequence DYDRDMLKISEL (protein)
chain: B1 chain with K123R, L125M, I129S
modifications: left off: Gal4 activation domain, end not stated, kept
B3: pol30-Rad30E9: PCNA mutant evolved for Rad30, IDCL sequence DNDWDFLKIDEL (protein)
chain: B1 chain with Y121N, K123W, L125F, I129D
modifications: left off: Gal4 activation domain, end not stated, kept
B4: pol30-79: previously studied PCNA mutant with decreased partner binding, IDCL sequence DIDADFAKAEEL (protein)
chain: B1 chain with Y121I, K123A, L125F, L126A, I128A, I129E
modifications: left off: Gal4 activation domain, end not stated, kept
B5: pol30-Rad30E2: PCNA mutant evolved for Rad30, IDCL sequence DDDWDFLKILEL (protein)
chain: B1 chain with Y121D, K123W, L125F, I129L
modifications: left off: Gal4 activation domain, end not stated, kept
B6: pol30-Pol32E9 (protein)
chain: B1 chain with Y121N, K123V, L125S
modifications: left off: Gal4 activation domain, end not stated, kept

Tests used:
CAN1 gene = experiment: Spontaneous mutation rate, CAN1 reporter assay, fluctuation analysis; type: cell-based, yeast; conditions: for Spontaneous Mutation Rate Can^R (Fold Increase): Table 1, compared to the WT POL30 strain
From the text: It was previously shown that PCNA contains another site of regulation (i.e. K164) that is modulated by ubiquitination or SUMOylation (Figure 1B) and that is crucial for the recruitment of TLS polymerases,[37]. To test whether the K164 regulatory site is active in the PCNA mutant strains, we examined the spontaneous mutation rate in these strains (Table 1). Increase in spontaneous mutation rate can indicate the recruitment of TLS polymerases to PCNA through K164 ubiquitination,[37]. Alternatively, these mutants can indirectly affect the spontaneous mutation rate by reducing DNA replication processivity and causing replication fork stalling, thereby leading to TLS recruitment. These mutants can also indirectly alter Pol-δ or Pol-ε proofreading leading to TLS recruitment. We measured the spontaneous mutation rate using the CAN1 reporter assay by monitoring the ability of the PCNA mutant strains to grow in the presence of canavanine, a toxic analogue of arginine. […] To examine whether Polζ, the major TLS polymerase,[37], is recruited in vivo to PCNA mutants showing increased affinity for Rad27 and Pol32 (pol30-Rad27E6 and pol30-Pol32E5, Table 1) upon K164 ubiquitination, we measured the spontaneous mutation rates of these mutant strains on the background of either mutated rev3 encoding the catalytic subunit of Polζ or mutated rad18 encoding the K164 ubiquitin ligase or K164R mutation (Figure 7, Table 2).
(§1) Novel haploids containing PCNA mutants were generated using the plasmid shuffling method. Briefly, a pol30::KanMX magic marker heterozygote diploid strain BY4743 (Open Biosystem) was transformed with plasmid pRS316-POL30. Following dissection of the diploid, a haploid containing the CAN+ gene and plasmid pRS316-POL30 as a sole source of PCNA was generated. This host strain was transformed with selected pRS315-pol30 mutants, plated on SC-Ura-Leu plates, followed by replica plating to SC-Leu+5FOA plates. Haploids, containing PCNA mutants as a sole source, were further verified by plating on either SC-Leu or SC-Ura plates. For testing selected PCNA mutants, a haploid containing rad27::HYG, rad30::HYG, pol32::HYG, msh6::HYG, or ung1::HYG were generated using plasmid pAG32 by conventional genetic approaches. Growth of the PCNA mutant strains in the presence of 120 mM HU (Toronto Research Chemicals) or 0.02% MMS (Sigma) was performed as described. To examine the effects of partner overexpression on pol30 mutant strains, these strains were transformed with various plasmids containing GST-tagged PCNA partner encoding genes under the control of a GAL1/10 inducible promoter, as previously described. Overnight cultures were plated in serial dilutions on SC-Ura containing either glucose or galactose with or without DNA-damaging agents, as described above.
The mutation rates for the different pol30 mutant strains described in this study were determined by fluctuation test analysis using the Lea and Coulson method,[48]. The different strains were plated as single colonies on SC-Leu plates and allowed to grow for 3 d at 30°C. At least 25 single colonies from each strain were excised from the plate and resuspended in 1 ml of sterile water to an O.D600 of 0.7. Appropriate dilutions of the cells were then plated on SC-Leu and SC-Leu-Arg+canavanine ([…]) to obtain the number of viable cells (Nt) and the number of canavanine-resistant cells (r), respectively. Using the Lea and Coulson method, the number of mutations (m) per colony was derived from the number of canavanine resistant-colonies (r) across parallel cultures, using the following equation: […]. The m values were then used to calculate the mutation rate, M, using the following equation: M = m/Nt, where Nt is the average number of viable cells per plating. The different M values were sorted to obtain the median. […]

yeast strains = experiment: Growth sensitivity of PCNA mutant strains to MMS and HU; type: cell-based; conditions: for effect of overexpression of Rad27, Rad30, Pol32, and Msh6 on growth sensitivity to DNA damaging agents: Figure S9, GAL1/10 inducible GST-tagged partners; for effect of rad27 deletion on growth sensitivity of the mutant strain: Figure S8, parent vs rad27-deleted strains; for effect of rad30 deletion on strain growth sensitivity phenotype: Figure 6B
From the text: Next, we examined the sensitivity of strains containing single deletions of each of the five different partners on a WT PCNA background. […] We first examined whether the rad27 deletion can suppress the lethality of a strain containing the pol30-Rad27L1 or pol30-Rad27L2 mutants (Figure 6A). […] In addition, we examined whether rad30 deletion, ung1 deletion, and msh6 deletion can suppress the phenotypes of the pol30 mutants with increased affinity to Rad30, Ung1, and Msh6, respectively (Figure 6B–D). […] However, since the suppression of the strain phenotypes was not complete, additional factors, such as minor effects of the mutations on other PCNA-partner interactions, may play a partial role in the sensitivity phenotype of the examined pol30 mutants. […] We also examined whether overexpression of different partners can suppress the growth sensitivity of the pol30 mutants, however no suppression was observed (Figure S9).
as §1

Rad27 = experiment: Yeast two hybrid (Y2H) analysis of PCNA-partner interaction; type: binding; conditions: for Binding of PCNA Mutants to Target Partners: Rad27, fold increase or decrease (quantitative Y2H): footnote c: generation time in liquid selective media lacking histidine relative to cells expressing WT PCNA, average of at least 3 independent experiments
Procedure: (§2) For the Y2H assay, we used the YRG2 host strain, shown to be highly efficient in coupling the strength of protein-protein interactions with growth on media lacking histidine. Selected PCNA mutants were characterized for their ability to bind each of 12 main PCNA partners to obtain specificity profiles (Table 1, Table S1, and Figures S4–S5). […] However, in some cases a strong trade-off between the bindings of different partners was observed.
(§3) Y2H analysis was performed using the Yeast Two Hybrid Phagemid vector kit (Stratagene), following the manufacturer's instructions. The pAD-PCNA-WT/mutant plasmids were used as bait while plasmids encoding 12 different PCNA partners (Table 1 and Table S1) were used as prey. The YRG2 host strain (Stratagene) was cotransformed with pAD-PCNA WT/mutant and pBD-partner plasmids in all possible combinations using the LiAC method. Single transformants were grown in liquid SC-Leu-Trp to O.D600 10, washed twice with DDW, and diluted to an initial OD600 of 0.3. A series of 10-fold serial dilutions was then spotted onto selective SC-Leu-Trp-His plates and incubated at 30°C for 3 d. For quantitative Y2H, the generation time of the indicated mutants and their respective partners were calculated from their growth curves in liquid SC-Leu-Trp-His media. Cells were grown overnight in SC-Leu-Trp, washed twice with ddH2O, and diluted by a factor of 1∶50 into 10 ml of pre-warmed SC-Leu-Trp-His. O.D600 measurements of the cultures were taken at the indicated time; the generation time (τ) was calculated from the growth curves according to the equation ODt = OD0×2^t/τ. The generation time calculated for each culture is an average of at least 3 independent experiments.

Pol32 = experiment: as above; type: binding; conditions: for Binding of PCNA Mutants to Target Partners: Pol32 (Y2H): YRG2 strain, growth on selective agar plates lacking histidine, growth similar to WT PCNA denoted as 1; for Binding of PCNA Mutants to Target Partners: Pol32, fold increase or decrease (quantitative Y2H): footnote c: generation time in liquid selective media lacking histidine relative to cells expressing WT PCNA, average of at least 3 independent experiments
Procedure: as §2, §3

Rad30 = experiment: as above; type: binding; conditions: for Binding of PCNA Mutants to Target Partners: Rad30 (Y2H): YRG2 strain, growth on selective agar plates lacking histidine, growth similar to WT PCNA denoted as 1; for Binding of PCNA Mutants to Target Partners: Rad30, fold increase or decrease (quantitative Y2H): footnote c: generation time in liquid selective media lacking histidine relative to cells expressing WT PCNA, average of at least 3 independent experiments
Procedure: as §2, §3

Msh6 = experiment: as above; type: binding; conditions: for Binding of PCNA Mutants to Target Partners: Msh6 (Y2H): YRG2 strain, growth on selective agar plates lacking histidine, growth similar to WT PCNA denoted as 1; for Binding of PCNA Mutants to Target Partners: Msh6, fold increase or decrease (quantitative Y2H): footnote c: generation time in liquid selective media lacking histidine relative to cells expressing WT PCNA, average of at least 3 independent experiments
Procedure: as §2, §3

Ung1 = experiment: as above; type: binding; conditions: for Binding of PCNA Mutants to Target Partners: Ung1 (Y2H): YRG2 strain, growth on selective agar plates lacking histidine, growth similar to WT PCNA denoted as 1
Procedure: as §2, §3

Row | Molecule | Fold Increase Relative to WT (mutation rate, CAN1 locus) (CAN1 gene; Table 2) | Mutation Rate (CAN1 locus) (CAN1 gene; Table 2, median, brackets = 95% confidence interval, at least 25 independent determinations) | effect of overexpression of Rad27, Rad30, Pol32, and Msh6 on growth sensitivity to DNA damaging agents (yeast strains) | Binding of PCNA Mutants to Target Partners: Rad27 (Y2H) (Rad27; YRG2 strain, growth on selective agar plates lacking histidine, growth similar to WT PCNA denoted as 1) | Binding of PCNA Mutants to Target Partners: Pol32 (Y2H) (Pol32) | Binding of PCNA Mutants to Target Partners: Rad30 (Y2H) (Rad30) | Binding of PCNA Mutants to Target Partners: Msh6 (Y2H) (Msh6) | Binding of PCNA Mutants to Target Partners: Ung1 (Y2H) (Ung1) | Spontaneous Mutation Rate Can^R (Fold Increase) (CAN1 gene) | Binding of PCNA Mutants to Target Partners: Msh6, fold increase or decrease (quantitative Y2H) (Msh6) | effect of msh6 deletion on spontaneous mutation rate (CAN1 gene; Figure 6D) | effect of rad27 deletion on growth sensitivity of the mutant strain (yeast strains) | effect of rad30 deletion on strain growth sensitivity phenotype (yeast strains) | Binding of PCNA Mutants to Target Partners: Rad27, fold increase or decrease (quantitative Y2H) (Rad27) | Binding of PCNA Mutants to Target Partners: Rad30, fold increase or decrease (quantitative Y2H) (Rad30) | Binding of PCNA Mutants to Target Partners: Pol32, fold increase or decrease (quantitative Y2H) (Pol32) | Binding of PCNA Mutants to Target Partners: Ung1, fold increase or decrease (quantitative Y2H) (Ung1; footnote c: generation time in liquid selective media lacking histidine relative to cells expressing WT PCNA, average of at least 3 independent experiments)
1 | POL30: wild-type yeast PCNA (POL30), IDCL sequence DIDADFLKIEEL | 1 fold | 1.5×10^−7 [1.5, 2.2] | did not reduce the growth sensitivity | 1 | 1 | 1 | 1 | 1 |  |  |  |  |  |  |  |  | 
2 | B1 |  |  |  |  | 1 | 1 |  | 1 | 4.1 fold | 1.4 fold |  |  |  |  |  |  | 
3 | B2 |  |  |  |  | 1 | 1 |  | 1 | 7.3 fold | 1.4 ^c fold | Suppression | only weak effect |  |  |  |  | 
4 | B3 |  |  |  |  | 1 |  | 1 | 1 | 15.3 fold |  |  |  | suppression | 0.5 ^c fold | 1.6 fold |  | 
5 | B4 |  |  | did not reduce the growth sensitivity |  |  |  |  |  | 2.2 fold | 0.4 ^c fold |  |  |  | 0.5 ^c fold | 0.4 ^c fold | 0.3 ^c fold | 0.3 ^c fold
6 | B5 |  |  |  |  |  |  | 1 | 1 | 10 fold |  |  | suppression of the growth sensitivity | suppression | 0.4 ^c fold | 1.4 ^c fold | 0.4 ^c fold | 
7 | B6 |  |  |  |  |  | 1 | 1 | 1 | 4 fold |  |  |  |  |  |  | 1.3 fold | 
